In assay [1] the target is microtubules (without MAP7). The assay can be described thus: single-molecule TIRF microscopy.
The target in assay [2] is MAP7-decorated microtubules (mammalian MAP7) (UniProt O88735). Description: optical trapping.
Assay [3] addresses microtubules (without MAP7). Description: optical trapping.

“MAP7 (ensconsin, E-MAP-115), mammalian, with N-terminal FLAG and SNAP-tags (from UniProt O88735 1-730) (natural protein)” had a mean dwell time in assay [1] of 114 s.
As for “dynein on isolated phagosomes (teams of dynein motors) (complex)”, in assay [2], the increase of the relative binding rate against microtubules without MAP7 turned out to be 10%. Also, the unbinding rate at zero load in assay [2] is 0.0207 s⁻¹; in assay [3], 0.0237 s⁻¹.

(Values after article doi:10.1101/557611.)
